The text below walks through data of publication PMC9165289, “Theranostic PSMA ligands with optimized backbones for intraoperative multimodal imaging and photodynamic therapy of prostate cancer” (European Journal of Nuclear Medicine and Molecular Imaging, 2022).

Read-outs that look alike come from different tables or passages of the source.

Data set [1] has as its system LS174T-PSMA and LS174T wildtype xenografts. Briefly: PSMA-N064 blocking experiment, ex vivo biodistribution. Particulars: 0.3 nmol, 10 MBq, i.v., 2 h p.i., n=5. The data set is classed as in vivo, BALB/c nude mice. The method, then: (§1) All animal experiments were approved by the institutional Animal Welfare Committee of the Radboud University Medical Center and were conducted in accordance to the guidelines of the Revised Dutch Act on Animal Experimentation. Animal experiments were performed in 8–10 weeks old male BALB/c nude mice (Janvier). The mice were housed in individually ventilated cages (Blue line IVC, 3–5 mice per cage), under standard non-sterile conditions with cage enrichment present. There was free access to chlorophyll-free animal chow (Sniff Voer) and water. Mice were subcutaneously inoculated with 3.0 × 10^6 LS174T-PSMA cells in the right flank and 1.5 × 10^6 LS174T WT cells in the left flank (diluted in 200-µl RPMI 1640 medium). When xenografts were approximately 0.5 cm^3 (10–14 days after injection), mice were block-randomized into groups based on tumor size. The researchers were not blinded for the experimental groups.
Five mice per group were intravenously injected with either 0.1 nmol PSMA-N064, 0.3 nmol PSMA-N064, 0.1 nmol PSMA-N064 + 10 nmol unlabeled PSMA-617 (100x excess) or PSMA-617. Ligands were labeled with 10 MBq ^111In in PBS+0.5% (w/v) BSA. For the ex vivo biodistribution four groups (one for each experimental condition) of five mice were included. Two hours p.i., all mice from all groups were euthanized by CO2/O2-asphyxiation and relevant tissues were dissected, weighed and measured for radioactivity in a gamma-counter (2480 WIZARD^2 Automatic Gamma Counter, PerkinElmer).

The test system of data set [2] is LS174T-PSMA cells. More on the design: method as in PMID 33408764. Particulars: head-to-head comparison; cited from earlier work.
The subject of data set [3] is LS174T-PSMA cells. The data set can be described thus: in vitro binding and internalization assay. The class given is cell-based, human. The note with it: for PSMA-specific membrane binding and internalization: corrected for non-specific binding (2-PMPA). The method, then: The binding and internalization characteristics of the ligands were determined using LS174T-PSMA cells. Cells were cultured to confluency in 6-well plates followed by incubation with 50,000 counts per minute of ^111In-labeled ligand (0.1–0.25 pmol/well) in 1-ml RPMI + 0.5% BSA (37 °C, 2 h). Non-specific binding was determined by coincubation with 2(phosphonomethyl)-pentane-1,5-dioic acid (2-PMPA, 21.57 µM). PSMA-specific binding was defined as total binding minus the non-specific binding. To retrieve the membrane-bound fraction, cells were washed twice with PBS and incubated for 10 min at 0 °C with acid buffer (154-mM NaCl, 0.1 M acetic acid, pH 2.6). After incubation, the membrane-bound fraction was collected. Then, cells were washed and lysed with 0.1 M NaOH, and the cell lysate (intracellular activity) was collected. Intracellular and membrane-bound activity fractions were measured in a gamma-counter (2480 WIZARD^2 Automatic Gamma Counter, PerkinElmer).

Data set [4] can be described thus: ex vivo biodistribution of 111In-labeled ligands. The note with it: male, BALB/c nude, mouse, iv, 0.3 nmol, total radioactivity, 2 h p.i.; for tissue uptake at 2 h: 10 MBq/mouse, i.v. Also on record: species or system BALB/c nude mice. As to the method: as §1
(§2) Mice were intravenously injected with 0.3 nmol PSMA ligand, labeled with 10 MBq ^111In (molar activity 33.3 MBq/nmol) in PBS + 0.5% (w/v) BSA. For the ex vivo biodistribution, five groups (one group for each ligand) of four mice were included. Two hours p.i., all mice were euthanized by CO2/O2-asphyxiation. For two mice of each group (2 mice/ligand), background-subtracted fluorescence images were acquired with the IVIS imaging system (Xenogen VivoVision IVIS Lumina II, PerkinElmer), with a 640-nm excitation filter and a Cy5.5 emission filter and an acquisition time of 10 s. Next, µSPECT/CT imaging was performed in the same two mice per group, with a 1.0-mm diameter pinhole mouse collimator tube (U-SPECT II, MILabs). Mice were scanned for 30 min followed by a CT scan for anatomical reference (spatial resolution 160 μm, 615 μA, 65 kV). MILabs reconstruction software was used to reconstruct the µSPECT/CT scans, via an ordered-subset expectation maximization algorithm, energy windows 154–188 keV and 220–270 keV, 3 iterations, 16 subsets, and voxel size of 0.75 mm. SPECT/CT maximum intensity projections (MIPs) were created using the Inveon Research Workplace software (Siemens Preclinical Solutions, version 4.1). NIR fluorescence images were analyzed using Living Image software (PerkinElmer, version 4.2). After imaging, relevant tissues were dissected, weighed, and measured for radioactivity in a gamma-counter (2480 WIZARD^2 Automatic Gamma Counter, PerkinElmer). In addition, a blocking experiment with PSMA-N064 and PSMA-617 was performed. Full experimental procedures and results can be found in the supplementary data (Page 5, Supplementary Fig. 3).

Data set [5] relates to LS174T-PSMA and LS174T wildtype xenografts. The data set can be described thus: ex vivo biodistribution of 111In-labeled ligands. Also on record: species or system BALB/c nude mice. The note with it: 0.3 nmol, 2 h p.i. The method, then:
as §1, §2

For data set [6] the test system is unchanged. Briefly: µSPECT/CT and NIR fluorescence imaging. The class given is in vivo, BALB/c nude mice. The note with it: 0.3 nmol, 10 MBq/mouse, 2 h p.i.
Text: as §2, with “SPECT/CT maximum intensity projections (MIPs) were created using the Inveon Research Workplace software (Siemens Preclinical Solutions, version 4.1).” left out, “In addition, a blocking experiment with PSMA-N064 and PSMA-617 was performed. Full experimental procedures and results can be found in the supplementary data (Page 5, Supplementary Fig. 3).” left out

Where [7] appears, read: LS174T wildtype tumor, n=4, read-out: Biodistribution Tumor- LS174T.
The mark [8] stands for this setting: LS174T-PSMA tumor, n=4, read-out: Biodistribution Tumor+ LS174T-PSMA.
Where [9] appears, read: adrenals, n=4, read-out: Biodistribution Adrenals.
The mark [10] stands for this setting: blood, n=4, read-out: Biodistribution Blood.
The mark [11] stands for this setting: bone marrow, n=4, read-out: Biodistribution Bone marrow.
[12] abbreviates: bone, n=4, read-out: Biodistribution Bone.
The mark [13] stands for this setting: duodenum, n=4, read-out: Biodistribution Duodenum.
[14] abbreviates: heart, n=4, read-out: Biodistribution Heart.
[15] abbreviates: kidney, n=4, read-out: Biodistribution Kidney.
Setting [16] is: liver, n=4, read-out: Biodistribution Liver.
[17] abbreviates: lung, n=4, read-out: Biodistribution Lung.
Setting [18] is: muscle, n=4, read-out: Biodistribution Muscle.
[19] abbreviates: pancreas, n=4, read-out: Biodistribution Pancreas.
Setting [20] is: prostate, n=4, read-out: Biodistribution Prostate.
[21] abbreviates: salivary glands, n=4, read-out: Biodistribution Salivary glands.
The mark [22] stands for this setting: spleen, n=4, read-out: Biodistribution Spleen.
Where [23] appears, read: stomach, n=4, read-out: Biodistribution Stomach.
Setting [24] is: tumor (LS174T-PSMA xenograft) / blood, read-out: Tumor/Blood ratio.
Where [25] appears, read: tumor (LS174T-PSMA xenograft) / kidney, read-out: Tumor/Kidney ratio.
The mark [26] stands for this setting: tumor (LS174T-PSMA xenograft) / liver, read-out: Tumor/Liver ratio.
Where [27] appears, read: tumor (LS174T-PSMA xenograft) / spleen, read-out: Tumor/Spleen ratio.

Consider `O=C(O)CC[C@H](NC(=O)N[C@@H](CCCCNC(=O)[C@H](Cc1ccc2ccccc2c1)NC(=O)[C@H]1CC[C@H](CNC(=O)CN2CCN(CC(=O)O)CCN(CC(=O)O)CCN(CC(=O)O)CC2)CC1)C(=O)O)C(=O)O` [PSMA-617], for which the “Biodistribution Tumor+ LS174T-PSMA” value in data set [1] is recorded as 19 ± 2 %ID/g. For the same compound, the internalization ratio in data set [2] is 46%.
For the compound `CC(=O)N[C@@H](CCCCNC(=O)CCCCCNC(=O)[C@H](CCC(=O)O)NC(=O)[C@H](CCC(=O)O)NC(=O)[C@H](Cc1ccccc1)NC(=O)[C@H](CCCCNC(=O)CCCCCNC(=O)OCCCOc1cccc2c3n4c(c12)=NC1=NC(=Nc2c5ccccc5c(n2[Si]4(O[Si](C)(C)CCC[N+](CCCS(=O)(=O)[O-])(CCCS(=O)(=O)O)CCCS(=O)(=O)O)O[Si](C)(C)CCC[N+](CCCS(=O)(=O)[O-])(CCCS(=O)(=O)O)CCCS(=O)(=O)O)N=C2N=C(N=3)c3ccccc32)c2ccccc21)NC(=O)CCC(C(=O)O)N1CCN(CC(=O)O)CCN(CC(=O)O)CCN(CC(=O)O)CC1)C(=O)O` (stereo partly drawn) [PSMA-N064inc, reference compound], in data set [3], the “PSMA-specific membrane binding and internalization” value is “no binding and internalization”. For the same compound, the tissue uptake at 2 h was 0.4 ± 0.1 %ID/g in data set [4] (setting [7]); 0.5 ± 0.2 %ID/g in data set [4] (setting [8]); 0.7 ± 0.6 %ID/g in data set [4] (setting [9]); 0.3 ± 0.2 %ID/g in data set [4] (setting [10]); 0.1 ± 0.03 %ID/g in data set [4] (setting [11]); 0.2 ± 0.1 %ID/g in data set [4] (setting [12]). The tissue uptake at 2 h in data set [4] (setting [13]) is 0.2 ± 0.04 %ID/g; in data set [4] (setting [14]) it was 0.3 ± 0.1 %ID/g; in data set [4] (setting [15]), 47 ± 6 %ID/g; in data set [4] (setting [16]), 0.6 ± 0.1 %ID/g; in data set [4] (setting [17]), 0.3 ± 0.1 %ID/g; in data set [4] (setting [18]), 0.1 ± 0.1 %ID/g. Further, the tissue uptake at 2 h in data set [4] (setting [19]) amounted to 0.1 ± 0.04 %ID/g; in data set [4] (setting [20]) it was 0.6 ± 0.7 %ID/g; in data set [4] (setting [21]) it was 0.3 ± 0.05 %ID/g; in data set [4] (setting [22]) it was 0.2 ± 0.04 %ID/g; in data set [4] (setting [23]) it was 0.4 ± 0.1 %ID/g. Besides, the tissue to tissue ratio at 2 h in data set [4] (setting [24]) is 1.5 ± 0.6; in data set [4] (setting [25]), 0.01 ± 0.003; in data set [4] (setting [26]), 0.7 ± 0.2; in data set [4] (setting [27]), 2.1 ± 0.5. Further, the Tumor/Negative tumor ratio in data set [5] is reported as 1.1 ± 0.5. Also, in data set [5], the Tumor/Prostate ratio came to 1.3 ± 0.9. The Tumor/Salivary gland ratio in data set [5] is 1.6 ± 0.5. In addition, in data set [6], the “renal ligand accumulation on images” value is recorded as “lowest”.
Consider `C[Si](C)(CCC[N+](CCCS(=O)(=O)[O-])(CCCS(=O)(=O)O)CCCS(=O)(=O)O)O[Si]1(O[Si](C)(C)CCC[N+](CCCS(=O)(=O)[O-])(CCCS(=O)(=O)O)CCCS(=O)(=O)O)n2c3c4ccccc4c2N=C2N=C(N=c4c5c(OCCCOC(=O)NCCCCCC(=O)NCCCC[C@H](NC(=O)CN6CCN(CC(=O)O)CCN(CC(=O)O)CCN(CC(=O)O)CC6)C(=O)NCCCC[C@H](NC(=O)[C@H](CCC(=O)O)NC(=O)c6cccnc6)C(=O)NCc6ccc(C(=O)N[C@@H](Cc7ccc8ccccc8c7)C(=O)NCCCC[C@H](NC(=O)N[C@@H](CCC(=O)O)C(=O)O)C(=O)O)cc6)cccc5c(n41)=NC1=NC(=N3)c3ccccc31)c1ccccc12` [PSMA-N02], for which, in data set [3] (37 °C, 2 h), the “internalization percentage (percentage of cell-associated ligand that was internalized)” value is recorded as 73–90%. In addition, the “PSMA-specific membrane binding and internalization” value in data set [3] is “highest membrane-bound and internalized fraction”. Besides, the tissue uptake at 2 h in data set [4] (setting [7]) was 0.6 ± 0.2 %ID/g; in data set [4] (setting [8]), 23 ± 2 %ID/g; in data set [4] (setting [9]), 1.2 ± 0.2 %ID/g; in data set [4] (setting [10]), 0.5 ± 0.01 %ID/g; in data set [4] (setting [11]) it was 0.1 ± 0.1 %ID/g; in data set [4] (setting [12]), 0.5 ± 0.04 %ID/g. In addition, the tissue uptake at 2 h in data set [4] (setting [13]) turned out to be 0.4 ± 0.05 %ID/g; in data set [4] (setting [14]), 0.4 ± 0.05 %ID/g; in data set [4] (setting [15]), 99 ± 12 %ID/g; in data set [4] (setting [16]), 1.1 ± 0.1 %ID/g; in data set [4] (setting [17]), 1 ± 0.3 %ID/g; in data set [4] (setting [18]), 0.2 ± 0.04 %ID/g. Moreover, the tissue uptake at 2 h in data set [4] (setting [19]) amounted to 0.3 ± 0.05 %ID/g; in data set [4] (setting [20]), 0.5 ± 0.1 %ID/g; in data set [4] (setting [21]) it was 0.6 ± 0.1 %ID/g; in data set [4] (setting [22]) it was 1.6 ± 0.2 %ID/g; in data set [4] (setting [23]), 0.5 ± 0.1 %ID/g. Also, the tissue to tissue ratio at 2 h in data set [4] (setting [24]) came out at 43.1 ± 4.1; in data set [4] (setting [25]), 0.3 ± 0.01; in data set [4] (setting [26]), 21.6 ± 1.6; in data set [4] (setting [27]) it was 14.3 ± 2.5. In addition, the Tumor/Negative tumor ratio in data set [5] is on record as 42.2 ± 16.4. The Tumor/Prostate ratio in data set [5] came to 46.9 ± 13.8. The Tumor/Salivary gland ratio in data set [5] is listed as 39.2 ± 3.7.
